Data taken from US20020031761A1, “Binding moieties for human parvovirus B19” (priority 1998, published 2002).
No end group written: not given here.

Columns and labels:
[1] = target: VP1-VP2 (purified, recombinant B19 capsid proteins VP1 and VP2) (Human parvovirus B19, UniProt P07299); assay: ELISA of individual phage isolates for binding to VP1-VP2; details: phage isolate 10^9 pfu per well; VP1-VP2 2 μl per well on dextrin plates; HRP anti-M13 antibody, TMB
Text: For screening libraries to isolate binding moieties for parvovirus B19, a surrogate target was obtained, consisting of purified, recombinant B19 capsid proteins VP 1 and VP2 (VP1-VP2). Suitable preparations of VP1-VP2 can be made according to methods described in U.S. Pat. No. 5,498,413 or WO 91/12269, incorporated herein by reference. Prior to screening against phage display libraries, partially purified VP1-VP2 was immobilized on dextrin-coated microtiter wells (Recti-Bind™; Pierce Chemical Co.) and tested using standard ELISA techniques, to ensure that under the screening conditions there was a low background level of phage recovered.
From convergent screens of phage display libraries, eluted phage were propagated and 376 phage isolates were selected randomly and individually tested for binding to VP1-VP2 by standard ELISA techniques, using a polyclonal anti-phage antibody to detect bound phage. Briefly, VP1-VP2 (2 μl per well) was coated on dextrin plates, blocked with BSA, and individual phage isolates were added to the wells (50 μl, 10^9 pfu per well). After washing, bound phage were incubated with the detection anti-phage antibodies (100 μl per well HRP-conjugated anti-M13 antibody in PBS-Tween (Pharmacia Inc.)). […] The bound antibody was detected by adding 100 μl per well of two-component TMB (tetramethylbenzidine; Kirkegaard & Perry). […]

[2] = target: VP1-VP2 (Human parvovirus B19, UniProt P07299); assay: Relative binding ELISA, constant phage against decreasing amounts of VP1-VP2; details: signal interpolated at VP1-VP2 1:10 dilution; binding data normalized as percent of OD 630 nm
Experimental: Based on the ELISA data and the sequence similarities within each library, the 18 isolates (Tables 1-3) were selected and evaluated further with respect to their binding characteristics to VP1-VP2. Relative binding of each isolate was studied by ELISA. Each selected phage isolate, held at a constant amount, was contacted with decreasing amounts per well of VP1-VP2, the amounts coating each dextrin well varying from 2 μl down to 0.001 μl. Bound phage were detected as described before using polyclonal anti-phage antibody. […] Using VP1-VP2 at 1:10 dilution as an arbitrary point, a value for the signal was interpolated, and the relative binding strengths are reflected in Tables 1-3, above.

A F C W L W P G N C L H (AFCWLWPGNCLH; not fully specified; cysteine pairing not given here) [C01]
ELISA signal [1]: 1.5 | relative binding [2]: 44
